From US7041642B1, “Fluorescent bombesin-like peptides” (PerkinElmer LAS, Inc., priority 1995, dated 2006)
Ends that are not written are not given here. fluorescein = fluorescein label (light-emitting moiety) attached to the peptide

How the values were obtained:
[1] = molecular target: bombesin 2 receptor (BB2 or GRP receptor), recombinant cells; assay: radioligand displacement, recombinant cells expressing BB2
[2] = molecular target: bombesin 3 receptor (BB3 or orphan bombesin receptor), recombinant cells; assay: radioligand displacement, recombinant cells expressing BB3
Chain of bombesin 3 receptor (BB3 or orphan bombesin receptor), recombinant cells (P32247 whole entry): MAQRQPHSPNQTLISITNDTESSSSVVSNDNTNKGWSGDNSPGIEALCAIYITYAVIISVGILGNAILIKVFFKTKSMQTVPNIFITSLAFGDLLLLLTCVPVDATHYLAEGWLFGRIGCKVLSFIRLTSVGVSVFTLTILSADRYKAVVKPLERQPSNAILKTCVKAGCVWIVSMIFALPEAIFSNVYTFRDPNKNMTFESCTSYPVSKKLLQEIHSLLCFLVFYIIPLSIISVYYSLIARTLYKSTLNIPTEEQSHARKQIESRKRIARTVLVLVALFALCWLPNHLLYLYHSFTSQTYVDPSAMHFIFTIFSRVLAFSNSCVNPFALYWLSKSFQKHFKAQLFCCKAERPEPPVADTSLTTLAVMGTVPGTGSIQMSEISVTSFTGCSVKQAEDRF

[3] = molecular target: BB1, BB2, BB3; assay: Non-selective radioligand displacement binding, rat cerebral cortex / brain neurons
Description: Referring now to FIG. 4, a fluoresceinyl-NMC peptide with the amino aid sequence […]NH2 (SEQ ID NO:4) was tested to determine its affinity for NMC receptor sites. The fluoresceinyl-NMC peptide compound absorbs light maximally at 494 nm and features an emission spectrum centered around 518 nm. […] The IC50 is related to the binding constant Ki by the formula IC50=Ki (1+FL/Kd), where FL is the concentration of the free labeled ligand and Kd is the dissociation constant for the labeled ligand.
(§1) All experimental results were obtained by displacing radiolabeled bombesin from the designated receptor, except for the results obtained for GRP which used radiolabeled GRP. Other receptors used in binding assays include the NMB receptor, the bombesin-receptor subtype 2 (BB2) and the bombesin receptor subtype 3 (BB3). As mentioned above, the biological activities of fluoresceinyl-NMC as well as fluoresceinyl-GRP compounds were determined in non-selective assay by binding to BB1, BB2 and BB3 expressed by rat brain neurons whereas the biological activities of fluoresceinyl-NMB and [Dphe^6, Ala^11, Phe^13, Nle^14]Bbn(6–14) compounds were determined by using recombinant cells expressing the BB1 (NMB receptor) or BB2 and BB3 receptors respectively.
(§2) Determination of IC50 for labeled peptides. […] In order to fully dissolve the peptide, the sample was reconstituted in 20 uL DMSO, vortexing well to ensure that all powder was completely dissolved, and then adding 0.48 mL of double distilled water. The stock solution was aliquoted to avoid repeated freezing and thawing of peptide. Unused aliquots were stored at −20° C. (protected from light) for maximum 24 hr.
Receptor binding was carried out on tissues of rat cortex homogenate for GRP, recombinant cells expressing BB1 (NMB receptor) for NMB, or recombinant cells expressing BB2 and BB3 for [Dphe^6, Ala^11, Phe^13, Nle^14]Bbn(6–14). […]
(§3) Data for native and labeled peptides were analyzed by non-linear curve fitting. […]

[4] = molecular target: T1, BB1 (NMB receptor) (Homo sapiens, UniProt P28336); assay: Radioligand displacement binding, recombinant cells expressing BB1 (NMB receptor)
T1 construct: expressed in transfected cells
T1 sequence (P28336 whole entry): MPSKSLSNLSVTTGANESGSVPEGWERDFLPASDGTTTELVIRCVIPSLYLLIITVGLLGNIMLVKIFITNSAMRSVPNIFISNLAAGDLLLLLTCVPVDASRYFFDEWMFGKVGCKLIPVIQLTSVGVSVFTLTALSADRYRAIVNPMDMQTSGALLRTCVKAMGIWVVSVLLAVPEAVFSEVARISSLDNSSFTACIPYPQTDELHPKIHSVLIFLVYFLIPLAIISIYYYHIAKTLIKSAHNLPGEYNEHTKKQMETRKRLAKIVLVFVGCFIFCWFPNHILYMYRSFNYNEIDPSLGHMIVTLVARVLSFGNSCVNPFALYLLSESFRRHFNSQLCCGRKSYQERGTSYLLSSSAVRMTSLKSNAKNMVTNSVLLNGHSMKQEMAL
Description: as §1
as §2, with “hr. […]” for “hr.”
as §3

[5] = molecular target: BB1, BB2 and BB3 expressed by rat brain neurons; assay: displacement of radiolabeled bombesin, rat cerebral cortex
[6] = molecular target: BB1, BB2 and BB3 expressed by rat brain neurons; assay: radioligand displacement (radiolabeled bombesin), rat cerebral cortex, non-selective
[7] = molecular target: BB1, BB2 and BB3 expressed by rat brain neurons; assay: radioligand displacement (radiolabeled GRP), rat cortex homogenate, non-selective
[8] = molecular target: bombesin 1 receptor (BB1 or NMB receptor), recombinant cells; assay: radioligand displacement, recombinant cells expressing BB1 (NMB receptor)

## fluoresceinyl-[Dphe^6, Ala^11, Phe^13, Nle^14]Bbn(6-14) (peptide)
[1]
  Ki: 0.26 nM
[2]
  Ki: 86 nM

## fluoresceinyl-NMC peptide, sequence Gly-Asn-His-Trp-Ala-Val-Gly-His-Leu-Met-NH2 (SEQ ID NO:4), fluorescein at N-terminus (fluorescein-GNHWAVGHLM-NH2; listed as Sus scrofa) [Fluo*-NMC]
[3]; displacement of radiolabeled bombesin, BB1, BB2, BB3 of rat brain neurons
  Ki: 3.2 nM
[3]; read-out: IC50 (concentration at which 50% of the binding is inhibited), displacement of radiolabeled bombesin, receptors on rat cerebral cortex neurons
  IC50: 3.2 nM

## [Dphe^6, Ala^11, Phe^13, Nle^14]Bbn(6-14) (peptide)
[1]
  Ki: 0.17 nM
[2]
  Ki: 23 nM

## VPLPAGGGTVLTKMYPRGNHWAVGHLM [GRP]
[3]; displacement of radiolabeled GRP, BB1, BB2, BB3, rat cortex homogenate
  Ki: 2 nM

## CSCC[C@H](NC(=O)[C@H](Cc1ccccc1)NC(=O)[C@H](Cc1cnc[nH]1)NC(=O)CNC(=O)[C@@H](NC(=O)[C@H](C)NC(=O)[C@H](Cc1c[nH]c2ccccc12)NC(=O)[C@H](CC(C)C)NC(=O)[C@H](CC(N)=O)NC(=O)CN)[C@@H](C)O)C(N)=O [NMB]
[4]
  Ki: 0.1 nM

B1: fluoresceinyl-NMC peptide (peptide)
peptide: {fluorescein (carboxylic form)}-GNHWAVGHLM-NH2
[5]
  IC50: 3.2 nM
[6]
  Ki: 3.2 nM

B2: fluoresceinyl-GRP (peptide)
peptide: {fluorescein (carboxylic form)}-VPLPAGGGTVLTKMYPRGNHWAVGHLM-NH2
[7]
  Ki: 32 nM

B3: GRP (peptide)
peptide: VPLPAGGGTVLTKMYPRGNHWAVGHLM-NH2
[7]
  Ki: 2 nM

B4: fluoresceinyl-NMB (peptide)
peptide: {fluorescein (carboxylic form)}-GNLWATGHFM-NH2
[8]
  Ki: 7 nM

B5: NMB (peptide)
peptide: GNLWATGHFM-NH2
[8]
  Ki: 0.1 nM
